# Measured values: article PMC11112747, “Cyanovirin-N Binding to N-Acetyl-D-glucosamine Requires Carbohydrate-Binding Sites on Two Different Protomers” (Biochemistry, 2024)
# Substitutions are numbered along the chain they refer to. In names and notes the source's numbering stands. Several values for one entry are separate records, joined by “and”; a condition that tells them apart may be missing. Identical values can stand only once. Like-named read-outs stand apart in the source and are kept apart here.
# T1: CVN2 (CVN2L0) (Nostoc ellipsosporum, UniProt P81180)
# T1 construct: tandem-linked domain-swapped dimer of two CV-N, zero-linker length; His-tag
# T1 sequence (P81180 1-101): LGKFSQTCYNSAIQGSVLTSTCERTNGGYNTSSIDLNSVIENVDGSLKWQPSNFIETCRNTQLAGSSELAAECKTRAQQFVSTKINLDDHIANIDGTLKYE
# B1: Cyanovirin-N (protein, UniProt P81180 1-101, looked up)
# Cyanovirin-N: T1 sequence (P81180 1-101)
# B2: CVN-E41T: CV-N binding-site variant with single-point mutation E41T, generated by alanine to threonine substitution (protein, UniProt P81180 1-101, looked up, variant E41T)
# Cyanovirin-N: T1 sequence (P81180 1-101) with E41T
# B3: CVN2: tandem-linked dimeric CVN2 with zero-linker length; tandem repeat of two CV-N molecules (protein, UniProt P81180 1-101, looked up)
# Cyanovirin-N: T1 sequence (P81180 1-101)
# modifications: tandem repeat dimer, zero linker
# notes: tandem-linked dimeric CVN2 with zero-linker length; tandem repeat of two CV-N molecules
# Experiments:
# [1] = target: T2, CVN-E41A (Nostoc ellipsosporum, UniProt P81180, E41A); experiment: Isothermal titration calorimetry, protein titrated into GlcNAc in the cell, PBS pH 7.4, 298 K, one-set of sites model.; type: binding; conditions: SEM, n = 3; read-out: affinity Kd
# T2 construct: monomeric variant; His-tag
# Method: (§1) Calorimetric titrations were carried out using an ITC200 device (Malvern Panalytical, Malvern, UK). The concentration of mutant E41T dimer and monomeric variants CVN-E41T or CVN-E41A was 200 μM titrant of these proteins to the ligands ManNAc and GlcNAc in the cell. […] The protein concentrations were 44 μM (304 μM) CVN2L0 and 465 μM CVN-E41T in the ManNAc experiments, respectively, and determined to be between 200 and 300 μM for the GlcNAc experiment. Aliquots (2 μL) of CV-N titrant were injected at 2 min intervals into the sugar solution in the calorimetry cell with a total of 19 injections from a stirring syringe (operated at 750 rpm). Controls were prepared with identical amounts of titrant injected into PBS buffer at pH 7.4 at 298 K, and control values were subtracted from the results of the actual experiments. The values for enthalpy, binding affinity, and stoichiometry from the binding curve and the free energy and entropy of interaction were calculated using Microcal Origin v7.0 (OriginLab, Northampton, Massachusetts, USA) according to the standard expressions: ΔG = −RTln Ka, and ΔG = ΔH–TΔS.
# (§2) Figure 2 ITC data showing the binding of CVN2, mutant E41T dimer, and CVN-E41A to GlcNAc. (A) Schematic representation of monomeric CVN-E41A and dimeric CVN2 binding to GlcNAc. (B) Binding affinity of CVN2 to GlcNAc. Thermogram is shown, and the binding curve fitted to the one-set of sites model. (C) Mutant E41T dimer binds to GlcNAc. Thermogram is shown, and binding analyzed based on one-set of sites binding model. T = 298 K. Ligand in cell. […] Thermogram is shown, and binding analyzed based on one-set of sites binding model. […]
# (§3) The lectin interaction with peptide residues was enhanced or reduced by replacing a single, or two, disulfide bond(s) by ionic residue pairs (Glu and Arg) at positions E58 and R73 in CVN2, resulting in binding of dimannosylated peptide (DM) by double-mutant C58E-C73R (CVN2L0-V5) (Figure S2C) with high polar interactions.[12] […] The binding stoichiometry was calculated from a simplex fit. […]
# [2] = target: T1, CVN2 (CVN2L0); experiment: as above; type: binding; conditions: SEM, n = 3; read-out: affinity Kd
# Method: as §1, §2, §3
# [3] = target: T3, mutant E41T dimer (Nostoc ellipsosporum, UniProt P81180, E41T); experiment: as above; type: binding; conditions: SEM, n = 3; read-out: affinity Kd
# T3 construct: His-tag
# Method: as §1, §2, §3
# [4] = target: T4, CVN-E41T (Nostoc ellipsosporum, UniProt P81180, E41T); experiment: Isothermal titration calorimetry, monomeric CVN-E41T titrated into 6 uM GlcNAc in the cell, PBS pH 7.4, 298 K, one-set of sites model, single biological replicates.; type: binding; conditions: n = 1; read-out: Affinity Kd
# T4 construct: His-tag
# Method: as §1, with “Controls were prepared with identical amounts of titrant injected into PBS buffer at pH 7.4 at 298 K, and control values were subtracted from the results of the actual experiments.” left out
# as §3
# [5] = target: T1, CVN2 (CVN2L0); experiment: Isothermal titration calorimetry, CVN2 titrated into ManNAc in the cell, PBS pH 7.4, 298 K, one-set of sites model.; type: binding; conditions: SEM, n = 3; read-out: affinity Kd
# Method: as §1, with “Controls were prepared with identical amounts of titrant injected into PBS buffer at pH 7.4 at 298 K, and control values were subtracted from the results of the actual experiments.” left out, “ΔH–TΔS. […]” for “ΔH–TΔS.”
# Specific carbohydrate–protein interactions with polar and charged residues were delineated from the solution structure with Manα1 → 2Man disaccharide bound to domain B.[5] […] A low-affinity binding site was exposed and calculated to bind ManNAc with micromolar concentrations of CV-N and CVN2 (Figure S1A and Figure 1B). […]
# [6] = target: T3, mutant E41T dimer; experiment: Isothermal titration calorimetry, mutant E41T dimer with ManNAc in the cell, PBS pH 7.4, 298 K, calculated with N = 2.; type: binding
# Method: as §1, with “Controls were prepared with identical amounts of titrant injected into PBS buffer at pH 7.4 at 298 K, and control values were subtracted from the results of the actual experiments.” left out
# In comparison, CV-N binding to GlcNAc, the N-linked glycan unit in N-glycosylation sites that is also part of bacterial cell walls with beta-linked bonds to N-acetylmuramic acid (MurNAc), was rather unspecific and measured in the micromolar range (Figure S1B).
# Figure S1. […] Calculated energies of interaction, affinities, and stoichiometry for CV-N binding and […]
# model. (F) Mutant E41T dimer binding to ManNAc is calculated based on N=2, ligand in the cell analysis. […]
# [7] = STD-NMR interaction with GlcNAc; type: binding; conditions: protein 100 μM, carbohydrate/CV-N = 10:1, T = 298 K
# Method: (§4) NMR experiments were performed using a Bruker 600 MHz spectrometer, and STD spectra were obtained with −0.05 ppm as irradiation frequency and 2.94 s of saturation time. An NMR sample of CV-N, its mutant, and dimer were prepared in 100 mM PBS, pH 7.0, each added to the carbohydrate solutions in phosphate buffer for a final protein concentration of 100 μM and a ratio of carbohydrate/CV-N = 10:1.
# [8] = STD-NMR interaction with ManNAc; type: binding; conditions: protein 100 μM, carbohydrate/CV-N = 10:1, T = 298 K
# Method: as §4
# [9] = cited from earlier work
# [10] = ITC binding of CV-N, CVN2 and variants to ManNAc; conditions: for Kd: two-sets of sites model
# Method: as §1
# [11] = ITC binding of CVN2 to dimannosylated peptide (DM); conditions: one-set of sites model, T=298K, Figure S2D
molecule,measurement,setting,value
"CC(=O)N[C@H]1C(O)O[C@H](CO)[C@@H](O)[C@@H]1O (stereo partly drawn) [GlcNAc, N-acetyl-D-glucosamine]",Kd,[1],2.5 ± 2 µM
same,Kd,[2],0.852 ± 0.235 µM
same,Kd,[3],5.89 ± 0.32 µM
same,Kd,[4],0.728 µM and 0.397 µM and 0.418 µM
"CC(=O)N[C@@H]1C(O)O[C@H](CO)[C@@H](O)[C@@H]1O (stereo partly drawn) [ManNAc, N-acetylmannosamine]",Kd,[5],1.4 ± 0.139 µM
same,Kd,[6],110 µM
B1,STD-NMR interaction with GlcNAc,[7],interaction
same,STD-NMR interaction with ManNAc,[8],hydrogen bonding
same,Kd,"[9]; deeper high-affinity binding pocket, read-out: equilibrium Kd",~0.14 µM
same,Kd,"[9]; domain A (low-affinity site), read-out: Kd",1.5 µM
B2,binding to ManNAc (ITC),"[10]; one-set of sites model, Figure S3A",no binding
same,Kd,"[10]; site 1, read-out: KD1",712 µM
same,Kd,"[10]; site 2, read-out: KD2",17.6 µM
same,STD-NMR interaction with GlcNAc,[7],interaction
same,STD-NMR interaction with ManNAc,[8],hydrogen bonding
B3,Kd,"[10]; site 2, read-out: KD2",0.0026 µM
same,Kd,[11],3.94 µM
same,STD-NMR interaction with GlcNAc,[7],interaction
